From the nanobody polyreactivity screen of Harvey et al. (2022)

Assay: yeast display, Sf9 membrane polyspecificity reagent, FACS + sequencing; frameworks hold sequencing errors
Summary of the method: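 Polyreactivity labels are assigned by the sorting gate from which each nanobody was recovered. The gates were low and high (top ~1%), set on anti-HA fluorescence for expression and streptavidin fluorescence for reagent binding. Before sorting, galactose-induced (36–48 hours) yeast display cells were stained for 1 hour at 4 °C with 10% biotinylated, detergent-solubilized Sf9 membrane reagent.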

Sequence	polyreactivity (PSR sort gate)
QVQLVESGGGLVQAGGSLRLSCAASGSTFVWNAMGWYRQAPGKERELVASISSSGDRTYYADSVKGRFTISRDNAKNTVYLQMNSLKPEDTAVYYCAARYTRADYDYLGQGTQVTVSS	high polyreactivity
QVQLVESGGGLVQAGGSLRLSCAASGFIFDIYAMGWYRQAPGKERELVASINWSGGDSTSYADSVKGRFTISRVNAKNTVSLQMNILKPEDTAVYYCIAEYWYYAGGYPDEYDYWGQGPQVTVSS	low polyreactivity
QVQLVESGGGLVQAGGSLRLSCAASGITFKDYAMGWYRQATGKERELVAVISYSGGSTYYADSVKGRFTISRDNAKNTVYLEMNSLKPEDTAVYYCAARVGPEYDWGQGTQVTVSS	low polyreactivity
QVQLVESGGGLVQAGGSLRLSCAASGFTFGYNAMGWYRHAPGKERELVAAISYRDGSTYYADSVKGRFTISRDNAKNTVYLQMNSLKPEDTAVYYCAAEVWYPGWGYDYWGQGTQVTVSS	high polyreactivity
QDQLVDTVGGLVQAGGSLRLSCAASGRTFWFYAMGWYRQAPGKESELVASITTGGGTNYADSVKGRFTISRDNAKITVYLQMNSLKPEDTAVYYCAVKRYHFGSGVDWYGGSSYGYWGQGTQVTVSS	high polyreactivity
QVQLVESGGRLVQAGGSLRLSCAASGRIFRRYAMGWYRQAPGKERELVAAISGSGGSTYYADSVKGRFTISRDNAKNTVYLQMNCLKPEDTAVYYCAARVGLGYDRLKSEYNYWGQGTQVTVSS	high polyreactivity
QVQLVDSGGGLVQAGGTHRLSCAASGFTFRRNAMGWYRQAPGKERELVAAITYNGGTSYYADSVKGRFSISRDNAKNTVYLQMNSLKPEETAVYYCAAVDSYSPYVSHDNWGQGTKVTVSS	low polyreactivity
QVQLVESGGGLVQAGGSLRLSCAASGRIFIANTMGWYRQAPGKERELVAAITQRGDSTYYADSVKGRFTISRDNAKNTVYLQMNSLKPEDTAVYYCAARYYLSSYVRYNYWGQGTQVTVSS	high polyreactivity
QVQLVESGGGLVQAGGSLRLSCAASGRIFPTYAMGWSRQAPGKERELVAAISRRTTRTYYADSVKGRFTISRDNAKNTVYLQMNSLKPEDTAVYYCAARLYSSVVRYRYGYWGQGTQVTVSS	high polyreactivity
QVQLVESGGGLVQAGGSLRLSCAASGRIFRRYALGLYRQAPGKEREFVAAISYGGGSTYYADSVKGRFTISRDNAKNTVYLQMNRLKPEDTAVYFCNADVPKSLLLYYPWGYGYWGQGTQVTVSS	low polyreactivity
QVQLVESGGGLVQAGGSLRLSCAASGSTFPLYAMGWYRQAPGKERELVAAITTGGGNTYYADSVKGRFTISRDNAKNTVYLQLNSLTPEDTAVYYCAKPYHIGLSGRRTYDYWGQGTQVTVSS	high polyreactivity
QVQLVESGGGLDQAGGSLRLSCAASGFTFSYNAMGWYRQAPGKERELVASISWRGGGTYYADSVKGRFTISRDNAKNTVYLQMNSLKPEDTAVYYCNAGLTDYIGDPSEVDYWGQGTQVTVSS	low polyreactivity
QVQLVESGGGLVQAGGSLRLSCAASGYIFVKNAMGWYRQAPGTERELVAAISTRGGRTYYADSVKGRFTISRDNAKNTVYLQMNSLKPEDTAVYYCAAVHQTSYYDANSYGYWGQGTQVTVSS	high polyreactivity
QLQLVESGGGLVQAGGSLRLSCAASGSIFYGYAKGWYRQAPGTERELVAAINTSGGSTFYADSVKGRFTISRDNANNTVYLQMNSLKPEDTAVYYCAAERYRYRSTDTMGYWGQGTQVTVSS	low polyreactivity
QVQLVESGGGLVQAGGSLRLSCAASGSNFKRYTMGLYRQAPGKEWELVAAISTSSGSTYYADSVKGRFTISRDNANNSVYLQMNSLKPEDTAVYYCAAVRHRQTYPKYNYWGQGTQVTVSS	high polyreactivity
QVQLVESGGGLFQAGGSLRLSCAASGSIFAGYAMGWSRQAPGNERELVATITSSSRTNYADSVKGRFTISRDNAKNTVYLQMNSLKPEDTAVYYCAATSFSVRFTRYYYWGQGTQVTVSS	high polyreactivity
QVQHVESGGGLVQAGGSLRLICAASGFTFHLYAMGWYRQAPGKERELVASITYSGGSTYYADSVKGRFTISRDKAKNTVYLHMNSLKAEDTAFYYCNRYSSSYSYDYWGQATQVTVSS	high polyreactivity
QVQLVESGGGLVQAGGSLRLSCAASGFTFQRNAMGWYRPAPGKERELVAAISKSGGSTYYADSVKGRFTISRDNAKNTVYLQMNSLKPEDTAVYYCARDRGYQSGYDYWGQGTQVTVSS	high polyreactivity
QVQLVESGGGLVQAGGSLRLSCAASGFIFRYNPMGWYRQAPGKERELVAVITSGGRTYYADSVKGRFTISRDNAKNTVYLQMNSLKPEDTAVYYCNGDSRHRRNYDYWGQGSQVTVSS	high polyreactivity
QVQIVESGGGLVQAGGSLRISCAASGLTFHRYAMGRYRQAPGKERELVAAINYSGGRTYYADSVKGRFTISRDNAKNTVYLQMNSLKPVDTAVYYCAAPRASGYYWGQGTQVTVSS	high polyreactivity
QVQLVESGGGLVQAVGSLRLSCAASGIIFDSYAMGWYRQAPGKERELVAAITSRGGRTYYADSVKGRFTISRDNAKNTVYLQMNSLKPEDTAVYYCAADDGWIEPVYGYYEHEYWGQGTQVTVSS	low polyreactivity
QFQLVESGGGLVQAGGSLRLSCAASGRIFVGYAMGSYRQAPGKEMELVATISSRGGSTYYADSVKGRFTISRDNAKNTLYLQMNSLKPEDTAVYYCAAVARNNRNSRQRIPYDFWGQGTQVTVSS	high polyreactivity

Sequence	polyreactivity (PSR sort gate)
QVQLVESGGGLVQAGGSLRLICAASGSTFRYYAMVLYRQAPGKERELVAAISGTGSTYYADSVKGRFTISRDNAKNTVYLQMNSLKPEDTAVYYCAAYPRASQRYNYWGQGTQVTVSS	high polyreactivity
QVQLVESGGGLVQAGGSLRLSCAASGHIFFYYTMGWYRQAPGKERELVAGITIGGSTNYADSVKGRFTISRDNAKNTVYLKMNSLKPEDTAVYYCNVVKYVYIYSYWEYYYWGQGTQVTVSS	low polyreactivity
QVQLVESGGGLVQAGGSLRLSCAASGITFYRYMGWYRQAPGKERELVASITGRGGSTYYADSVKGRFTISRDNAKNTVYLQMNSLKPEDTAVYYCAARSYARPGGSRFDYWGQGTQVTVSS	high polyreactivity
QVQLVESGGGLVQAGGSLRLSCAASGRIFVINAMGLYRQAPGKERELVADITWSGGSTYADSVKGRFTISRDTAKNTVYLQLNSLKPEDTAVYYCAAVYLRVDRYLQVYRYDYWGQGTQVTVSS	high polyreactivity
QEQLEESGGGVVQAGGSLRLSCAAYGSIFYAYSMGWYRQAPGKEREFVAASSKRGGSTYYSDSVKGRFTISRDNEKNTVYLQMNSLKPEDTAVYYCYVGYGYWRGVKQSYDRFDYWGQGTQVTVSS	high polyreactivity
QVQLVVSGGGLVQAGGSLRLSCAASGSIFKKYAMGWYRQAPGKERELVAAITRGTYYADSVKGRFTISRDNAKNTVYLLMNSLNPEDTAVYYCNREYWVRGYYRVRGEYDYWGQGTQVTVSS	low polyreactivity
QVQLVESGGGLVQAGGSLRLSCAASGNIFLYYAMRWYRQAPGKERELVADIDSSGASTYYADSVKVRFTISRDNAKNTVYLQMNSLKPEDTAVYYCAAEFHWWYAGYDYGYWGQGTKVTVSS	low polyreactivity
QVQLQESDGGLVQAGGSLRLTCAASGSISPQYYMGWYRQAPGKEREFVAISKGTTTYYADSVKGRLTISRVNANNTVYLQMNSLKPEDTAVYCCAAGRWLQKVHAYWDQGTQVTVSS	low polyreactivity
QVQLVESGGGLVQAGGSLRLSSAASGNINSWNTMGWYRQAPGKERELVAAITFRGTRTFYADSVKGRFTISRDNAKNTVYLQMNSLKPDDTAVFYCAARYYYSYSLGYDYWGQGTQVTVSS	high polyreactivity
QVHLVESGGGLVQAGGSLRLSCAASGNTLRVYTKGWYRQAPWKERELVAAISRRGSRTYYADTVKGRFTISRENAKYTVYLQMNSLKPEDTAVYYCAAGIPYPDDYWGQGTQVTVSS	high polyreactivity
QVQLVESGGGLFQAGGSLRLSCAATGSTFSGYAMGWYRQATGKDRELVAAIASTGRTYYADSVKGRFTISRDNAKKTVYLQMNSLKPEDTAVYYCAAKRYTVYVHKYEYWGQGTKVTVSS	high polyreactivity
QVQLVESGGGLVQAGGSLRLSCDASGSTSSKYAMGWYRQAPGKEWQLVATISWRTGSTYYADSVKGRFTISRDNAKNTVYLEMNSLKPEETAVYYCNARVAGRRKYDYWGQGTQVTVSS	high polyreactivity
QVQLVESGGGLDQAGGSLRLSCAASGYTFPYYTMGWYRQAPGKESELVATITRRGDSTYYADSVKGRFTISRDNAKNTVYLQMNSLKPEDTAVYYCNTASYGRHHFRKSSKMDYWGQGTQVTVSS	high polyreactivity
QVQLVESGGGLVQAGGSLRLSCGASGSIFRLNAMGWYRQAPGKERELVARIDSSGSTNYADSVKGRFTISRDNAKNTVYLQMNSLKPEDTAVYYCAAVLVLIVGMDSWGQGTQVTVSS	low polyreactivity
QVQLVESGGGLVQAGGSLRLSCAASGNILARGYAMGWYRQAPGKERELVAAITFNDGSTYYADSVKGRFTISRDNAKNTVYLQMNSLKPEDTAVYYCAADFSYVYYLYDYWGQGTQVTVSS	low polyreactivity
QVQLVESGGGLVQAGGSLRLSCAASGITFWYYTMGWYRQAPGKERELVARITSGSRTSYADSVKGRFTISRDNAKNTVYLQMNSLKPEDTAVYYCAAGSYADRLWSKYNYWGQGTQVTVSS	high polyreactivity
QVQLVESGGGLVQAGGSLRLSCAASGSTFSANPMGWYRQAPGKERELVASISRRGGSTYYADSVKGRFTISRDNAKNTVYLQMNNLKPEDTAVYYCAAYYEYRRDYWGQGTQVTVSS	high polyreactivity
QVQLVESGGSLVQAGGSLLLSSAASLRTFGVNDIGWYRKAPGKERNFVAAISYSDTSTYYADSVKVSFTISRDNAKNTVYLQMNSLKPEDTAVYYCAVETYLQYDNGYGHDYWGQGTQVTVSS	low polyreactivity
QVQLVESGGGLVQAGGSLRLSCAASGSILLRNTMGWYRQAPGKERELVAAISWRGGSTYYADSVKGRFTISRDNAKNTVYLQMNSLKPEDTAVYYCAARWVASHKGGYWGQGTQVTVSS	high polyreactivity
QVQLVESCGGLVQAGGSLSLSCAASGSTFNHYAMGWYRQATGKEREFVAAISWSGGSTYYADYVQGRFTISRDNAKNTGYLQMNSLKPEDTAVYYCNAAVSQFSHRWRRRLTFDYWGQGTQVTVSS	high polyreactivity
QVQLVESGGGLVQAGGSLRLSCAASGIIFSLYAMGAYIQATGKERELVAAITTGGRTYYADSVKGRFTISRDNAKYSVYLQMNSLKPEDTAVYYCAALGPWQGGTTLSTNRGYWGQGTQVTVSS	high polyreactivity
